The supplement of paper PMC9170038

System: MS2 coat protein
Assay: apparent KD of MS2 coat protein; designed switch direction (-1 OFF switch, 1 ON switch): 1; higher = weaker reporter binding
Outline: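 Three titration conditions were used: no input, 200 uM small-molecule ligand, and an oligonucleotide input. In each, SNAP-549-labelled MS2 coat protein was raised from 0.7 or 1.5 nM, doubling, to 3 µM over designed RNA switches transcribed on Illumina chips by stalled E. coli RNA polymerase. Curve fits of normalised cluster fluorescence gave values whose per-design median over clusters is the apparent KD.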

[1] = input ligand: microRNA oligo, concentration not stated
[2] = Eterna round: R95, input ligand: FMN 200 uM
[3] = Eterna round: R95, input ligand: microRNA oligo, concentration not stated
[4] = Eterna round: R95, input ligand: none

Row | Sequence | apparent KD of MS2 coat protein (input ligand: FMN 200 uM) | apparent KD of MS2 coat protein [1] | apparent KD of MS2 coat protein (input ligand: none) | apparent KD of MS2 coat protein [2] | apparent KD of MS2 coat protein [3] | apparent KD of MS2 coat protein [4]
1 | AUUUUUAAUGCAGGAUAUGAUUAACAUGAGGAUCACCCAUGUGGUGUUGUGAGUAAGGAGAGUGAUCAGAAGGGCAGUUUUUUU [JMF's solution 79] (Eterna round: R96, puzzle: Same State NG 2) | 543 nM | 315 nM | 499 nM |  |  | 
2 | CCGUAAUAUGGAGGAUAUGGAGCCUUAUUGGCUCCAGAAGGUCAUAACACAUGAGGAUCACCCAUGUCGGCGGUCAAUAGACCG [Eli NG1ss - 76] (Eterna round: R96, puzzle: Same State NG 1) | 19.4 nM | 74.9 nM | 68.3 nM |  |  | 
3 | UUAAGCCACGGGCAGGAUAUGUAUUAAAAUACAUGAGGAUCACCCAUGUGCAGGUGUAACACCUGGCAGAAGGGCCAAUCGCGGC [Soondi - 4] (puzzle: Same State 2) |  |  |  | 29.2 nM | 149 nM | 171 nM
4 | GUUACAUGAGGAUCACCCAUGUAUGUGUGGGAGUAAGUGUCUUAGGAUAUCUGUUAUUUGAUUUAAGAGAAGGAAGAUUGUUGU [JMF's solution 40] (Eterna round: R96, puzzle: Same State NG 3) | 123 nM | 78.4 nM | 92.8 nM |  |  | 
5 | AUUAUUAAUGCAGGAUAUGAUUAACAUGAGGAUCACCCAUGUGGUGUUGUGAGUAAGGAGAGUGAUCAGAAGGGCAUUUUUUUC [JMF's solution 20] (Eterna round: R96, puzzle: Same State NG 2) | 672 nM | 369 nM | 399 nM |  |  | 
6 | GGUAGGUUACUACCAAACAUGAGGAUCACCCAUGUAGGUGGGAAGGAUAUGGUACCUUUUAGGUACCAGAAGGUCCAUACGAUC [NGss mod of JL's mod of Fisker 2] (Eterna round: R96, puzzle: Same State NG 3) | 451 nM | 325 nM | 562 nM |  |  | 
7 | GGAGCCGGCCUAGGAUAUUUCAUAUAUUAACAUGAGGAUCACCCAUGUAGGCCAGAAGGCCUUGGGAAGAAGGAGGUCGGCUCC [Loop Effect - U25,U27,U28] (Eterna round: R96, puzzle: Same State NG 2) | 15.7 nM | 49.8 nM | 79.6 nM |  |  | 
8 | GAGGAUGAUUUACAGGAUAUAUAGCAGAUGACAUGAGGAUCACCCAUGUAAGAGAAAGGAGGGAGAUAGAAGGGUAUGGGAUGUG [JR_SS2_Sub039] (puzzle: Same State 2) |  |  |  | 29.9 nM | 21.5 nM | 22.3 nM
9 | UGGUACAUGGGAGGAUAUCUCAUGGUGACAUGAGGAUCACCCAUGUAGUUGGAGCCGAAAGGCAGAGAGAAGGCCCAUGUACCU [JL SSNG1 3.77] (Eterna round: R96, puzzle: Same State NG 2) | 69.2 nM | 65.7 nM | 96.3 nM |  |  | 
10 | AAGCAGAGGCAAGGAUAUGUGAAGACCCAGCCUAGGCUGGGCACAUGAGGAUCACCCAUGUACAAACAGAAGGUGUAACCAGGC [Eternabot solution 18] (Eterna round: R96, puzzle: Same State NG 2) | 40.5 nM | 116 nM | 161 nM |  |  | 
11 | AACAUGUGGUGUUACAUGAGGAUCACCCAUGUGGCAAAAGCUGAGGAUAUCAUUAAACCCAUGAAUGAGAAGGUAGGAUCACAA [AK SSNG3-V2-20] (Eterna round: R96, puzzle: Same State NG 3) | 85.2 nM | 124 nM | 127 nM |  |  | 
12 | ACAUGAGACUUAGGAUAUCUUGUACCUACAUGUGACAUGAGGAUCACCCAUGUGGUAAGUAUGACAGAGAAGGAAGAGAUAUGU [Equivalance 68 - Jieux - Same State NG 2] (Eterna round: R96, puzzle: Same State NG 2) | 40.4 nM | 49.9 nM | 79.7 nM |  |  | 
13 | GGAGCCAAGGCAGGAUAUUCAUAUAAAUUAACAUGAGGAUCACCCAUGUAGGCCAGAAGGCCUUGGGAGAAGGGCCAUGGCUCG [Xeonanis - 13 mod8] (Eterna round: R96, puzzle: Same State NG 2) | 21.6 nM | 143 nM | 157 nM |  |  | 
14 | AUAAAACAUGAGGAUCACCCAUGUUAACAAAGUCGAGGAUAUGGGCAAAUAAAAUAAGAACCAGAAGGCGAAUAAU [salish99_ss1_r3_045] (puzzle: Same State 1) |  |  |  | 16.8 nM | 27.9 nM | 27.7 nM
15 | GUGGAGAAUUAAGGAUAUCGAGUCAAGAUGUUAAACAUGAGGAUCACCCAUGUGGGUUGCGGUAUCGAGAAGGUAAUUUACGGG [salish99_SSNG2_r04_505] (Eterna round: R96, puzzle: Same State NG 2) | 22.4 nM | 21.3 nM | 36.8 nM |  |  | 
16 | UUGCUCGUGUGAGGAUAUGCAGCCGUUUCGGCUGCAGAAGGUACUAUAAUACAUGAGGAUCACCCAUGUCUCUAUUGUUUAGUG [salish99_SSNG1_r04_927] (Eterna round: R96, puzzle: Same State NG 1) | 25.7 nM | 19.6 nM | 26.7 nM |  |  | 

Row | Sequence | apparent KD of MS2 coat protein (input ligand: FMN 200 uM) | apparent KD of MS2 coat protein [1] | apparent KD of MS2 coat protein (input ligand: none) | apparent KD of MS2 coat protein [2] | apparent KD of MS2 coat protein [3] | apparent KD of MS2 coat protein [4]
17 | GCAGAACAUGAGGAUCACCCAUGUCUCUAAUAUUGAGGAUAUGGACACGGUAUAUCCGAACCAGAAGGCGAACUGC [SS1 Teenbexe 17] (puzzle: Same State 1) |  |  |  | 27.5 nM | 34 nM | 41.2 nM
18 | AUAAGUUCGAUGCUCGUCUCUCCGUACAAACAUGAGGAUCACCCAUGUGAUUGGACAAAAGCCCAAUCAGUAUGGCC [Cebeince] (puzzle: Sensor for hsa-mir-208a) |  |  |  | 35.9 nM | 21.4 nM | 40.9 nM
19 | ACAUGAGAGAAAGGAUAUCAUGUACCUACAUGUGACAUGAGGAUCACCCAUGUGGUAAGUAUGAGUGAGAAGGUUCAGAUAUGU [Equivalence 34 - Jieux - Same State NG 2] (Eterna round: R96, puzzle: Same State NG 2) | 44.4 nM | 298 nM | 448 nM |  |  | 
20 | GGUGCCAAUAAAGCCUACAUGAGGAUCACCCAUGUAUGUAGGCAGGAUAUCGUUUGCAAAGCAAACGAGAAGGGCCGAGGCACC [Mat - Same State NG 3 - JL Mod - D55] (Eterna round: R96, puzzle: Same State NG 3) | 18 nM | 29.3 nM | 39.6 nM |  |  | 
21 | UUUGGGUGGCUGGAGGAUAUCCUGGUUGUUACAUGAGGAUCACCCAUGUGCCGCGCGGUGCGCUGGGAGAAGGCUGGCGGCCGUU (puzzle: Same State 2) |  |  |  |  | 71.8 nM | 
22 | AAUAAUCUAUCUGAGGAUAUCAUGAAAUAAACAUGAGGAUCACCCAUGUGCAGGAAAACUGCAUAUGAGAAGGCAGAUAGAUUGA [salish99_ss2_r3_020] (puzzle: Same State 2) |  |  |  | 43.8 nM | 551 nM | 1160 nM
23 | GUGGUCAGACAUGAGGAUCACCCAUGUGGAAUAAAUAAGGAAAAGGAUAUGGAAUAUAGGAUAUACCAGAAGGUUUGGUUGGUG (Eterna round: R96, puzzle: Same State NG 3) |  | 83 nM |  |  |  | 
24 | GUAGCAUACCGAGGAUAUUCAUAUAAUACAUGAGGAUCACCCAUGUUAAAUAGGCGAAAGCCUUGGGAGAAGGCGGAAUGCUAC [Xeonanis - 20 Mod66] (Eterna round: R96, puzzle: Same State NG 2) | 10.5 nM | 13 nM | 17.1 nM |  |  | 
25 | AUUAUUAAUGCAGGAUAUGAUUAACAUGAGGAUCACCCAUGUGGUGUUGUGAGUAAGGAGAGUGAUCAGAAGGGCAGUUUUUUU [JMF's solution 8] (Eterna round: R96, puzzle: Same State NG 2) | 614 nM | 227 nM | 262 nM |  |  | 
26 | CCAGGACAUGAGGAUCACCCAUGUGCUUAAUGUGGAGAAUCUCAGGAUAUCAUGAGGAUUACCCAUGAGAAGGGAGAUCCGAGG (Eterna round: R96, puzzle: Same State NG 3) | 437 nM | 300 nM | 483 nM |  |  | 
27 | AGUUGUGGGAAACUAUAGCAGACGCUCGUACAUGAGGAUCACCCAUGUCUUGUAGGAGCUGUUUGCUCGUUUUAUGG [ak 1 mod of one Eli's designs.] (puzzle: Sensor for hsa-mir-208a) |  |  |  | 62.8 nM | 50.1 nM | 
28 | GCCGCGUUUCGCGCCUACAUGAGGAUCACCCAUGUUUGUAGGCAGGAUAUCGCUUGCUUUGCGGGCGAGAAGGGCUGUUGUGGC [salish99_SSNG3_R04_018] (Eterna round: R96, puzzle: Same State NG 3) | 36.8 nM | 56.8 nM | 51.6 nM |  |  | 
29 | AGCUAUCGAAAACGAUAGCAAAGGCAUGUACAUGAGGAUCACCCAUGUCAUGUACAAGCUUUUUGCUCGUCUUAAAA [Zipper 23 - 3] (Eterna round: R96, puzzle: Sensor for hsa-mir-208a) | 660 nM | 14.1 nM | 440 nM |  |  | 
30 | GGUCCAGCCUGAGCUGGACAAAAGCAUGUACAUGAGGAUCACCCAUGUCAUGUAUAAGCUUUUUGCUCGUCUUAAAA [JL mod - D87 - 11] (puzzle: Sensor for hsa-mir-208a) |  |  |  | 20.4 nM | 10.5 nM | 20 nM
31 | UCUUGGUUUUUGCUCGUUUUUUGUGUUGAACAUGAGGAUCACCCAUGUAUUGUACGGUCCAGUUUGAUAAUGGUCCG [JMF 34] (puzzle: Sensor for hsa-mir-208a) |  |  |  | 25.6 nM | 14.3 nM | 27.3 nM
